Source: US20240301062A1

Legend:
cyno CLDN6 (cyno) = assay: flow cytometry, CHOK1/Cyno CLDN6-GFP cells
[1] = target: human claudin 6 (CLDN6) (human) (UniProt P56747); assay: flow cytometry, CHOK1/human CLDN6-GFP cells
[2] = target: human claudin 9 (CLDN9) (human) (UniProt O95484); assay: flow cytometry, CHOK1/human CLDN9-GFP cells
mouse CLDN6 (mouse) = mouse CLDN6 (mouse) (UniProt Q9Z262); assay: flow cytometry, CHOK1/mouse CLDN6-GFP cells
[3] = target: human claudin 6 (CLDN6) (human) (UniProt P56747); assay: flow cytometry, PA-1 cells (endogenous CLDN6)

Chain of human claudin 6 (CLDN6) (human) (P56747 whole entry): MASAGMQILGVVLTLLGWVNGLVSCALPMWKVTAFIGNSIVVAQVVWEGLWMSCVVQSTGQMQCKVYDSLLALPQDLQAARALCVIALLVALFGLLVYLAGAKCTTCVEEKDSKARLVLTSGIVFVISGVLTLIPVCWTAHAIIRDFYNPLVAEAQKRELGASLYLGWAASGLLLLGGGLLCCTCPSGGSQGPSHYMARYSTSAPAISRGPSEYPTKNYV
Chain of human claudin 9 (CLDN9) (human) (O95484 whole entry): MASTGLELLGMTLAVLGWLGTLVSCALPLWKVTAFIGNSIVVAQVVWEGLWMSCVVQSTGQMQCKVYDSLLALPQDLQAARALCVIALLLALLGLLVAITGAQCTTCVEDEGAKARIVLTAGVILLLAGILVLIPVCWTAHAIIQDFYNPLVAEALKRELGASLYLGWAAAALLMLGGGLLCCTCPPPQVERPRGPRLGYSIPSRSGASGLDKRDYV
Chain of mouse CLDN6 (mouse) (Q9Z262 whole entry): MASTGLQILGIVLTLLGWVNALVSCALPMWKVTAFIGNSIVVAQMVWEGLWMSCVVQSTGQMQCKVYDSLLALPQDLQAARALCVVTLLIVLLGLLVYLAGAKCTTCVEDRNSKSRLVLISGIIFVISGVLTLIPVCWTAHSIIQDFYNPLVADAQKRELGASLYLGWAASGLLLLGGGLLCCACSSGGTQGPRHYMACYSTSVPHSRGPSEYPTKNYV

Q: For Human IgG1 isotype Ctrl. (antibody), which Emax (MFI) (cyno CLDN6 (cyno)) is on record?
A: The Emax (MFI) was 225 MFI.

Q: What about the Emax (MFI) [1] of the same substance?
A: The Emax (MFI) was 31.1 MFI.

Q: And the Emax (MFI) [2]?
A: The Emax (MFI) was 26.9 MFI.

Q: What about the Emax (MFI) (mouse CLDN6 (mouse)) of the same substance?
A: The Emax (MFI) was 41.8 MFI.

Q: What about the Emax (MFI) [3] of the same substance?
A: The Emax (MFI) was 34 MFI.
